{"source": "paper PMC2527485", "about": "(Journal of molecular biology, 2008)", "target": "the molecule itself", "experiment": "SEC + crystal structure"}
{"protein": "E,Z-farnesyl diphosphate synthase (Rv1086) (enzyme) MEIIPPRLKEPLYRLYELRLRQGLAASKSDLPRHIAVLCDGNRRWARSAGYDDVSYGYRMGAAKIAEMLRWCHEAGIELATVYLLSTENLQRDPDELAALIEIITDVVEEICAPANHWSVRTVGDLGLIGEEPARRLRGAVESTPEVASFHVNVAVGYGGRREIVDAVRALLSKELANGATAEELVDAVTVEGISENLYTSGQPDPDLVIRTSGEQRLSGFLLWQSAYSEMWFTEAHWPAFRHVDFLRALRDYSARHRSYGR", "values": [{"measurement": "stoichiometry N", "result": 2}]}
